{"source": "patent US10376545B2", "about": "“Methods for producing hormone secreting cells in a subject” (ViaCyte, Inc., priority 2013, dated 2019)", "molecules": {"B1": {"name": "BMP: BMP4, member of the bone morphogenetic protein family (protein, UniProt P12644 293-408, looked up)", "Bone morphogenetic protein 4": "SPKHHSQRARKKNKNCRRHSLYVDFSDVGWNDWIVAPPGYQAFYCHGDCPFPLADHLNSTNHAIVQTLVNSVNSSIPKACCVPTELSAISMLYLDEYDKVVLKNYQEMVVEGCGCR"}, "B2": {"name": "noggin: protein that inactivates TGFβ superfamily signaling proteins such as BMP4 (protein, UniProt Q13253 28-232, looked up)", "Noggin": "QHYLHIRPAPSDNLPLVDLIEHPDPIFDPKEKDLNETLLRSLLGGHYDPGFMATSPPEDRPGGGGGAAGGAEDLAELDQLLRQRPSGAMPSEIKGLEFSEGLAQGKKQRLSKKLRRKLQMWLWSQTFCPVLYAWNDLGSRFWPRYVKVGSCFSKRSCSVPEGMVCKPSKSVHLTVLRWRCQRRGGQRCGWIPIQYPIISECKCSC"}, "B3": {"name": "Activin: TGFβ superfamily growth factor (protein, UniProt P08476 311-426, looked up)", "Inhibin beta A chain": "GLECDGKVNICCKKQFFVSFKDIGWNDWIIAPSGYHANYCEGECPSHIAGTSGSSLSFHSTVINHYRMRGHSPFANLKSCCVPTKLRPMSMLYYDDGQNIIKKDIQNMIVEECGCS", "modifications": "Inhibin beta A chain", "notes": "TGFβ superfamily growth factor"}}, "type_in_all_cases": "cell-based, human", "key": {"[1]": {"system": "INS, GCG, SST, GHRL, PDX1, NKX6.1, NGN3, ID1 expression", "experiment": "Nanostring mRNA analysis of endocrine cell cultures"}, "PEC derived from hESC": {"system": "PEC derived from hESC", "experiment": "Flow cytometry analysis of PEC derived from hESC (CHGA, NKX6.1, PDX1 sub-populations)", "method": "(§1) So, Activin levels less than about 25 ng/mL are acceptable for maintaining cell mass and yield. Applicant then performed flow cytometry analysis on these cell cultures to determine whether Activin at low levels during stages 3 and 4 had any effect on cell aggregate composition; see Table 14. […] Advantageously, the PDX1 only and Triple Negative sub-populations are reduced as compared to the control, particularly when Activin is used in stages 3 and 4.\nTo determine the cell composition of the PEC population with the combination of Activin, Heregulin and Wnt during stage 3, flow cytometry was performed after stage 4 and the PEC cellular composition is shown in Table 14. […] Data from flow cytometry supports and is consistent with data from QPCR that the combination of the three factors (AHW) in general delayed or suppressed differentiation of cells committed to the endocrine lineage (CHGA+) in PEC without affecting the production of the non-endocrine (CHGA−) sub-population. The delayed expression of these genes in vitro is consistent with their on-set (or delay) in in vivo mammalian pancreatic development, whereby NGN3 expression in endocrine differentiation occurs after the on-set of PDX1 and NKX6.1 expression in the non-endocrine (CHGA−) sub-population. Additionally, there was no compromise in the PEC mass and yield. […]\nUndifferentiated human ESC were expanded and differentiated substantially as described above in Table 17 Protocol #1 for stages 1-4 and in Schulz et al. (2012) supra, except that during the three (3) days of stage 3, 4 different conditions were compared: (i) 0 noggin (“no noggin”) for all 3 days; (ii) 1 day of Noggin at 50 ng/mL and 2 days with no additional Noggin; (iii) 2 days of Noggin at 50 ng/mL and 1 day with no additional noggin; and (iv) 3 days of Noggin at 50 ng/mL. After stage 3, each of these conditions (i) through (iv) then received the standard stage 4 differentiation media cocktail according to Table 8 and Table 17, but without additional Noggin. […] Moreover, with each additional day of noggin treatment, fewer non-endocrine multipotent pancreatic progenitor sub-populations were produced (compare 90.6% with no noggin to 64.6% with 3 days of noggin treatment)."}, "[2]": {"system": "NGN3, NKX2.2, NKX6.1, PDX1 expression", "experiment": "Quantitative PCR of relative gene expression in PEC cultures (NGN3, NKX2.2, NKX6.1, PDX1)", "method": "The progression of pluripotent cells to various multipotent and/or differentiated cells can be monitored by determining the relative expression of genes, or gene markers, characteristic of a specific cell, as compared to the expression of a second or control gene, e.g., housekeeping genes. In some processes, the expression of certain markers is determined by detecting the presence or absence of the marker. Alternatively, the expression of certain markers can be determined by measuring the level at which the marker is present in the cells of the cell culture or cell population. In such processes, the measurement of marker expression can be qualitative or quantitative. One method of quantitating the expression of markers that are produced by marker genes is through the use of quantitative PCR (Q-PCR). Methods of performing Q-PCR are well known in the art. Other methods which are known in the art can also be used to quantitate marker gene expression. For example, the expression of a marker gene product can be detected by using antibodies specific for the marker gene product of interest.\n(§2) Various growth factors were explored for their ability to suppress genes such as NGN3 during stages 3 and 4. One candidate growth factor was Activin which has diverse functions in stem cell expansion and differentiation. For example, at low levels (e.g. 10 ng/mL), Activin helps maintain pluripotent stem cell pluripotency and cell proliferation. At higher levels (e.g. 100 ng/mL) Activin acts as a differentiation growth factor responsible for definitive endoderm production at stage 1 (see e.g., Table 8). To test its effect on repressing cells committed to the endocrine lineage (CHGA+) during PEC formation, Applicant first tested Activin at a mid-level concentration of about 50 ng/mL with standard adherent differentiation.\nQuantitative PCR analysis was performed to determine the relative levels of gene expression at days 8, 10 and 12 of differentiation with the above combinations of Activin and Heregulin (FIG. 13). […]"}, "[3]": {"system": "hES-derived cell aggregates", "experiment": "Cell aggregate size / cell mass in suspension culture (imaging)", "method": "Preliminary studies were performed using Heregulin and FGF. In certain of these studies, Rho-kinase inhibitor, Y-27632, was included. […] An increase in cell aggregate size is advantageous in that it results in higher cell mass for later implantation and testing for function in animals.\nas §2, §1\nPluripotent stem cells were differentiated using the standard protocol according to Table 8, except during stage 3, Activin was included at 10 ng/mL or 20 ng/mL in combination with Heregulin at 2 ng/mL or 10 ng/mL; and during stage 4, Activin was reduced to 5 ng/mL with Heregulin at 1 ng/mL for two days then at 10 ng/mL thereafter. […] Increasing Activin to 20 ng/mL with Heregulin remaining the same at 2 ng/mL exacerbated the cell loss (compare FIGS. 12B and 12C, top panel). […]"}, "[4]": {"conditions": "N50-1day: Noggin 50 ng/mL for 1 day of stage 3, after stage 4"}, "[5]": {"conditions": "N50-2day: Noggin 50 ng/mL for 2 days of stage 3, after stage 4"}, "[6]": {"conditions": "N50-3d: Noggin 50 ng/mL for 3 days of stage 3, after stage 4"}, "[7]": {"conditions": "A5 Stg3&4: 5 ng/mL Activin at stages 3 and 4"}, "[8]": {"conditions": "A5 Stg3: 5 ng/mL Activin at stage 3"}, "[9]": {"conditions": "A10 Stg3: 10 ng/mL Activin at stage 3"}}, "note": "“Also recorded” adds a separate entry of the source."}
{"molecule": "B1", "values": [{"measurement": "Insulin and PDX1 expression", "setting": "[1]; 10 ng/mL at stages 6 and 7 or stage 7 alone", "value": "simultaneously increase Insulin and PDX1 expression"}, {"measurement": "pancreatic-lineage gene expression", "setting": "[1]; agent at days 30-35 during stage 7, analyzed at d35", "value": "increases expression of INS, PDX1 and IDI; also recorded: decreased GHRL expression"}, {"measurement": "ID1 gene expression", "setting": "[1]; stages 6 and 7", "value": "up-regulate inhibitor-of-differentiation (ID) gene expression"}]}
{"molecule": "B2", "values": [{"measurement": "non-endocrine multipotent pancreatic progenitor sub-population", "setting": "PEC derived from hESC; 3 days of Noggin at 50 ng/mL at stage 3, after stage 4", "value": 64.6, "unit": "%"}, {"measurement": "CHGA+ (Endocrine)", "setting": "PEC derived from hESC; [4]", "value": 11.9, "unit": "%"}, {"measurement": "CHGA−/NKX6.1+ (Non-endocrine)", "setting": "PEC derived from hESC; [4]", "value": 82, "unit": "%"}, {"measurement": "CHGA+ (Endocrine)", "setting": "PEC derived from hESC; [5]", "value": 25.1, "unit": "%"}, {"measurement": "CHGA−/NKX6.1+ (Non-endocrine)", "setting": "PEC derived from hESC; [5]", "value": 71.9, "unit": "%"}, {"measurement": "CHGA+ (Endocrine)", "setting": "PEC derived from hESC; [6]", "value": 32.5, "unit": "%"}, {"measurement": "CHGA−/NKX6.1+ (Non-endocrine)", "setting": "PEC derived from hESC; [6]", "value": 64.6, "unit": "%"}, {"measurement": "production of cells committed to the endocrine lineage (CHGA+)", "setting": "PEC derived from hESC; each additional day of noggin treatment at stage 3", "value": "increased levels of production of cells committed to the endocrine lineage (CHGA+)"}, {"measurement": "endocrine lineage marker expression (NKX2.2, INS)", "setting": "[2]; each additional day of noggin treatment, after stage 4 (day 12)", "value": "increased levels of endocrine lineage marker expression"}]}
{"molecule": "B3", "values": [{"measurement": "CHGA+ (Endocrine)", "setting": "PEC derived from hESC; [7]", "value": 54.9, "unit": "%"}, {"measurement": "CHGA−/NKX6.1+/PDX1+ (Non-endocrine)", "setting": "PEC derived from hESC; [7]", "value": 38, "unit": "%"}, {"measurement": "CHGA−/NKX6.1−/PDX1+ (PDX ONLY)", "setting": "PEC derived from hESC; [7]", "value": 4.1, "unit": "%"}, {"measurement": "CHGA−/NKX6.1−/PDX1− (Residual or Triple Negative)", "setting": "PEC derived from hESC; [7]", "value": 2, "unit": "%"}, {"measurement": "CHGA+ (Endocrine)", "setting": "PEC derived from hESC; [8]", "value": 54.7, "unit": "%"}, {"measurement": "CHGA−/NKX6.1+/PDX1+ (Non-endocrine)", "setting": "PEC derived from hESC; [8]", "value": 31.7, "unit": "%"}, {"measurement": "CHGA−/NKX6.1−/PDX1+ (PDX ONLY)", "setting": "PEC derived from hESC; [8]", "value": 6.7, "unit": "%"}, {"measurement": "CHGA−/NKX6.1−/PDX1− (Residual or Triple Negative)", "setting": "PEC derived from hESC; [8]", "value": 5.4, "unit": "%"}, {"measurement": "CHGA+ (Endocrine)", "setting": "PEC derived from hESC; [9]", "value": 56.2, "unit": "%"}, {"measurement": "CHGA−/NKX6.1+/PDX1+ (Non-endocrine)", "setting": "PEC derived from hESC; [9]", "value": 33.7, "unit": "%"}, {"measurement": "CHGA−/NKX6.1−/PDX1+ (PDX ONLY)", "setting": "PEC derived from hESC; [9]", "value": 4.6, "unit": "%"}, {"measurement": "CHGA−/NKX6.1−/PDX1− (Residual or Triple Negative)", "setting": "PEC derived from hESC; [9]", "value": 3.9, "unit": "%"}, {"measurement": "NGN3 and NKX2.2 expression", "setting": "[2]; 10 and 20 ng/mL at stage 3 with Heregulin, days 8, 10 and 12", "value": "capable of repressing NGN3 and NKX2.2"}, {"measurement": "NGN3, PDX1 and NKX6.1 gene expression in PEC", "setting": "[2]; about 50 ng/mL, standard adherent differentiation", "value": "capable of suppressing NGN3 expression without suppressing PDX1 and NKX6.1 gene expression"}, {"measurement": "cell mass and yield of aggregates", "setting": "[3]; 5 ng/mL and 10 ng/mL at stages 3 and 4", "value": "capable of maintaining cell mass and yield"}, {"measurement": "cell mass of aggregates", "setting": "[3]; 50 ng/mL during stage 3, cell aggregate suspension culture", "value": "the overall cell mass drastically decreased"}, {"measurement": "Activin levels acceptable for maintaining cell mass and yield", "setting": "[3]; stages 3 and 4, suspension culture", "value": "less than 25 ng/mL"}]}
